Assay results as given in patent publication US20180237507A1 (CITY OF HOPE, published 2018).

Biological target: BoNT serotype A (Clostridium botulinum, UniProt P0DPI0 2-1296)
Test: affinity; method not stated (yeast display affinity maturation)

Chain of BoNT serotype A (P0DPI0 2-1296 limits assumed): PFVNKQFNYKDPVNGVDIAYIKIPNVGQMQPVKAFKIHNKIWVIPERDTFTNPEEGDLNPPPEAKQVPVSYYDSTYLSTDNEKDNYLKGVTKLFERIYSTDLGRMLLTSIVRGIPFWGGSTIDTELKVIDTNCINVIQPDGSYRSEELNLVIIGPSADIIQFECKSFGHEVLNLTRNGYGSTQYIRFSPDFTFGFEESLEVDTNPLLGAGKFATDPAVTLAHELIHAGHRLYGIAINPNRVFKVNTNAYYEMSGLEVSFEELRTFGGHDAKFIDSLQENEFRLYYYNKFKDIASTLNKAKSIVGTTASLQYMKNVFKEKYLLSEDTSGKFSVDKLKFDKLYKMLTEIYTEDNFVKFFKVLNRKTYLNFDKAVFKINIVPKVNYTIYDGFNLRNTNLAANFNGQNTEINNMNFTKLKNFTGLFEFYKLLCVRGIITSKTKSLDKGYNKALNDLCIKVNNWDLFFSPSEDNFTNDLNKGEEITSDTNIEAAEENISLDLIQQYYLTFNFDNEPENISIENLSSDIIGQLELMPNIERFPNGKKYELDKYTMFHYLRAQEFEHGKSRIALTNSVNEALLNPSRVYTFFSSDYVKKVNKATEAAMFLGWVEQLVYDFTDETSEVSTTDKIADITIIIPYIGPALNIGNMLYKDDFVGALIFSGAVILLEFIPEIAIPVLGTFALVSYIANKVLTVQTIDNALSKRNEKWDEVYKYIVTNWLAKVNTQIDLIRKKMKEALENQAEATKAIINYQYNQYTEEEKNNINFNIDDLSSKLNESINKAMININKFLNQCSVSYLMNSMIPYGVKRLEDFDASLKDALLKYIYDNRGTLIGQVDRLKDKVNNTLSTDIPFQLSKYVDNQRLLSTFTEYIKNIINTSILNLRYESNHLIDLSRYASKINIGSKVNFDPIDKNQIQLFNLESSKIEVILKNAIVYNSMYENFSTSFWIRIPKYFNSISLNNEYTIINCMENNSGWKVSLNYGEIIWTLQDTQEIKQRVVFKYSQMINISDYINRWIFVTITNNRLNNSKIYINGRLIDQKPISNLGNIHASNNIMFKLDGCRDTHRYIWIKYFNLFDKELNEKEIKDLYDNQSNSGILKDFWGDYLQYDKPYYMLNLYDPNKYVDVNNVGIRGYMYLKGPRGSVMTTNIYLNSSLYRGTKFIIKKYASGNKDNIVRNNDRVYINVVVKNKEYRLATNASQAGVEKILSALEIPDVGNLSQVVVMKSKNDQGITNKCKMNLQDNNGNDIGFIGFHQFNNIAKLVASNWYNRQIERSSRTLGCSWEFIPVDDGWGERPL

B1: H7 VHH (VHH)
VHH: QVQLVESGGGLVQVGGSLRLSCVVSGSDISGIAMGWYRQAPGKRREMVADIFSGGSTDYAGSVKGRFTISRDNAKKTSYLQMNNVKPEDTGVYYCRLYGSGDYWGQGTQVTVSS
Kd: 42 pM
